B1: Fructose-1,6-bisphosphatase 1 (Homo sapiens), P09467 (parent)
chain: MADQAPFDTDVNTLTRFVMEEGRKARGTGELTQLLNSLCTAVKAISSAVRKAGIAHLYGIAGSTNVTGDQVKKLDVLSNDLVMNMLKSSFATCVLVSEEDKHAIIVEPEKRGKYVVCFDPLDGSSNIDCLVSVGTIFGIYRKKSTDEPSEKDALQPGRNLVAAGYALYGSATMLVLAMDCGVNCFMLDPAIGEFILVDKDVKIKKKGKIYSLNEGYARDFDPAVTEYIQRKKFPPDNSAPYGARYVGSMVADVHRTLVYGGIFLYPANKKSPNGKLRLLYECNPMAYVMEKAGGMATTGKEAVLDVIPTDIHQRAPVILGSPDDVLEFLKVYEKHSAQ
partner: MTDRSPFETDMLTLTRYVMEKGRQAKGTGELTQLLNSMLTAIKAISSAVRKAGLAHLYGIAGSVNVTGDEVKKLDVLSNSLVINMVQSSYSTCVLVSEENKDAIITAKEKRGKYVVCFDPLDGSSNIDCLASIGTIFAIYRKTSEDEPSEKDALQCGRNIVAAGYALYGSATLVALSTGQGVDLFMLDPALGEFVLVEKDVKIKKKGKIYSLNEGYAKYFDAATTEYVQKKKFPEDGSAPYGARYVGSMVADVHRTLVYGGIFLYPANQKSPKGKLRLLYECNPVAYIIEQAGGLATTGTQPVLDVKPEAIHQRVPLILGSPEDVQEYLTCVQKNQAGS
B2: Estrogen receptor beta (Homo sapiens), Q92731-3 (parent)
chain: MDIKNSPSSLNSPSSYNCSQSILPLEHGSIYIPSSYVDSHHEYPAMTFYSPAVMNYSIPSNVTNLEGGPGRQTTSPNVLWPTPGHLSPLVVHRQLSHLYAEPQKSPWCEARSLEHTLPVNRETLKRKVSGNRCASPVTGPGSKRDAHFCAVCSDYASGYHYGVWSCEGCKAFFKRSIQGHNDYICPATNQCTIDKNRRKSCQACRLRKCYEVGMVKCGSRRERCGYRLVRRQRSADEQLHCAGKAKRSGGHAPRVRELLLDALSPEQLVLTLLEAEPPHVLISRPSAPFTEASMMMSLTKLADKELVHMISWAKKIPGMRGNA
partner: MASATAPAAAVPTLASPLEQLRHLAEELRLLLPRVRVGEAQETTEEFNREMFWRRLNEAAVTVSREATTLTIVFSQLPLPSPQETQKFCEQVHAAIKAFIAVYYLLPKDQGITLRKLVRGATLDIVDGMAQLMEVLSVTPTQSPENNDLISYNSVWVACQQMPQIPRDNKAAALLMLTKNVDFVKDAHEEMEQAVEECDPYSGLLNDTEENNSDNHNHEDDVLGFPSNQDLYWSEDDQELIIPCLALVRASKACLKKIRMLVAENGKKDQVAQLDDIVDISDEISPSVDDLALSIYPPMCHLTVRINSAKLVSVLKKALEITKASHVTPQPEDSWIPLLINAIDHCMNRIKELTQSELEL
B3: Keratin, type II cytoskeletal 6A (Homo sapiens), P02538 (parent)
chain: MASTSTTIRSHSSSRRGFSANSARLPGVSRSGFSSVSVSRSRGSGGLGGACGGAGFGSRSLYGLGGSKRISIGGGSCAISGGYGSRAGGSYGFGGAGSGFGFGGGAGIGFGLGGGAGLAGGFGGPGFPVCPPGGIQEVTVNQSLLTPLNLQIDPTIQRVRAEEREQIKTLNNKFASFIDKVRFLEQQNKVLETKWTLLQEQGTKTVRQNLEPLFEQYINNLRRQLDSIVGERGRLDSELRGMQDLVEDFKNKYEDEINKRTAAENEFVTLKKDVDAAYMNKVELQAKADTLTDEINFLRALYDAELSQMQTHISDTSVVLSMDNNRNLDLDSIIAEVKAQYEEIAQRSRAEAESWYQTKYEELQVTAGRHGDDLRNTKQEIAEINRMIQRLRSEIDHVKKQCANLQAAIADAEQRGEMALKDAKNKLEGLEDALQKAKQDLARLLKEYQELMNVKLALDVEIATYRKLLEGEECRLNGEGVGQVNISVVQSTVSSGYGGASGVGSGLGLGGGSSYSYGSGLGVGGGFSSSSGRAIGGGLSSVGGGSSTIKYTTTSSSSRKSYKH
partner: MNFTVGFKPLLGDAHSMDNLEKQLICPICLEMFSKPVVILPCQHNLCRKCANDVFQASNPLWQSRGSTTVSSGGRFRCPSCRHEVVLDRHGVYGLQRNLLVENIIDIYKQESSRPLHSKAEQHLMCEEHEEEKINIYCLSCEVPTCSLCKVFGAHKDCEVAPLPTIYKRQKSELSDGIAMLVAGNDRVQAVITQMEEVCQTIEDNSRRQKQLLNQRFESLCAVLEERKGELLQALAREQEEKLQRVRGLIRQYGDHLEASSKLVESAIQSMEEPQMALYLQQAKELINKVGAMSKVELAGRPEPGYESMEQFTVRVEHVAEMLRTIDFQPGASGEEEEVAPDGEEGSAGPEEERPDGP
B4: Keratin, type II cytoskeletal 1 (Homo sapiens), P04264 (parent)
chain: MSRQFSSRSGYRSGGGFSSGSAGIINYQRRTTSSSTRRSGGGGGRFSSCGGGGGSFGAGGGFGSRSLVNLGGSKSISISVARGGGRGSGFGGGYGGGGFGGGGFGGGGFGGGGIGGGGFGGFGSGGGGFGGGGFGGGGYGGGYGPVCPPGGIQEVTINQSLLQPLNVEIDPEIQKVKSREREQIKSLNNQFASFIDKVRFLEQQNQVLQTKWELLQQVDTSTRTHNLEPYFESFINNLRRRVDQLKSDQSRLDSELKNMQDMVEDYRNKYEDEINKRTNAENEFVTIKKDVDGAYMTKVDLQAKLDNLQQEIDFLTALYQAELSQMQTQISETNVILSMDNNRSLDLDSIIAEVKAQYEDIAQKSKAEAESLYQSKYEELQITAGRHGDSVRNSKIEISELNRVIQRLRSEIDNVKKQISNLQQSISDAEQRGENALKDAKNKLNDLEDALQQAKEDLARLLRDYQELMNTKLALDLEIATYRTLLEGEESRMSGECAPNVSVSVSTSHTTISGGGSRGGGGGGYGSGGSSYGSGGGSYGSGGGGGGGRGSYGSGGSSYGSGGGSYGSGGGGGGHGSYGSGSSSGGYRGGSGGGGGGSSGGRGSGGGSSGGSIGGRGSSSGGVKSSGGSSSVKFVSTTYSGVTR
partner: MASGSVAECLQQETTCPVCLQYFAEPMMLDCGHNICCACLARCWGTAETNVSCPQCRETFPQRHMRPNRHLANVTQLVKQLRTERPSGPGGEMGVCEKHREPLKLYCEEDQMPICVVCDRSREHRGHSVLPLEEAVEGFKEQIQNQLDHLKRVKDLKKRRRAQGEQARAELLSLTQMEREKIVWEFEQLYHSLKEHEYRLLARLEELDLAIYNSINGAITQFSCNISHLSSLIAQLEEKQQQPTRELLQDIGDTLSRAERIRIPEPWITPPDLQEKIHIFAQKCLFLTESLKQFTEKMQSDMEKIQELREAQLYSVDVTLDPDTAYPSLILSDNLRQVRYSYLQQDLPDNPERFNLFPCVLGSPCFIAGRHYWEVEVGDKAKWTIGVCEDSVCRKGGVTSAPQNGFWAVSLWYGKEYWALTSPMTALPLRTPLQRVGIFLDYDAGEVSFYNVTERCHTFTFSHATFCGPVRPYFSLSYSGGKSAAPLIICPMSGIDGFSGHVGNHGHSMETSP
B5: ATP synthase mitochondrial F1 complex assembly factor 2 (Homo sapiens), Q8N5M1 (parent)
chain: MWRSCLRLRDGGRRLLNRPAGGPSASMSPGPTIPSPARAYAPPTERKRFYQNVSITQGEGGFEINLDHRKLKTPQAKLFTVPSEALAIAVATEWDSQQDTIKYYTMHLTTLCNTSLDNPTQRNKDQLIRAAVKFLDTDTICYRVEEPETLVELQRNEWDPIIEWAEKRYGVEISSSTSIMGPSIPAKTREVLVSHLASYNTWALQGIEFVAAQLKSMVLTLGLIDLRLTVEQAVLLSRLEEEYQIQKWGNIEWAHDYELQELRARTAAGTLFIHLCSESTTVKHKLLKE
B6: Keratin, type II cytoskeletal 6A (Homo sapiens), P02538 (parent)
chain: B3 chain
partner: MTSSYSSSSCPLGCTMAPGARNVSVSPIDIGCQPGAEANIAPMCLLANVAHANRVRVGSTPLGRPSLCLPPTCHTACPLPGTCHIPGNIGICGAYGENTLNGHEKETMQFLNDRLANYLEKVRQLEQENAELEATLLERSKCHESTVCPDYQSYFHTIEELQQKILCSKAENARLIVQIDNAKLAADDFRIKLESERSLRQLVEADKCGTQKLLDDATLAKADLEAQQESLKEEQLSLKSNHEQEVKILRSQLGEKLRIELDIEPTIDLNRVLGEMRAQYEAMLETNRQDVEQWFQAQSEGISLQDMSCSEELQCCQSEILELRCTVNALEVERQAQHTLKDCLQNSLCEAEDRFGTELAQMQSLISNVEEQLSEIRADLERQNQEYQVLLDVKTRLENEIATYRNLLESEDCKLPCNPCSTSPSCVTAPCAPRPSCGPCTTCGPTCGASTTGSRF

Variants of: B1
Conditions: with FBP2, O00757

| Variant | effect of a mutation on the interaction |
| --- | --- |
| F233I | with no effect |
| F194S | disrupting interaction strength |

Variants of: B1
Conditions: with FBP2, O00757
Remark: another data set of the same source

| Variant | effect of a mutation on the interaction |
| --- | --- |
| F194S | with no effect |
| N213K | with no effect |

Variants of: B2
Conditions: with ccdb1_human CCNDBP1, O95273

| Variant | effect of a mutation on the interaction |
| --- | --- |
| F289L | causing an interaction |

Variants of: B3
Conditions: with tri54_human TRIM54, Q9BYV2

| Variant | effect of a mutation on the interaction |
| --- | --- |
| N171K | with no effect |
| T552S | with no effect |
| V523F | with no effect |
| A463P | disrupting interaction strength |
| F249L | with no effect |
| I462S | with no effect |
| N21S | with no effect |
| F174V | with no effect |

Variants of: B3
Conditions: with tri54_human TRIM54, Q9BYV2
Remark: another data set of the same source

| Variant | effect of a mutation on the interaction |
| --- | --- |
| F174V | causing an interaction |

Variants of: B4
Conditions: with tri27_human TRIM27, P14373

| Variant | effect of a mutation on the interaction |
| --- | --- |
| L161P | causing an interaction |

Variants of: B5
Conditions: with ikzf3_human IKZF3, Q9UKT9
Chain of ikzf3_human IKZF3, Q9UKT9 (Q9UKT9 whole entry): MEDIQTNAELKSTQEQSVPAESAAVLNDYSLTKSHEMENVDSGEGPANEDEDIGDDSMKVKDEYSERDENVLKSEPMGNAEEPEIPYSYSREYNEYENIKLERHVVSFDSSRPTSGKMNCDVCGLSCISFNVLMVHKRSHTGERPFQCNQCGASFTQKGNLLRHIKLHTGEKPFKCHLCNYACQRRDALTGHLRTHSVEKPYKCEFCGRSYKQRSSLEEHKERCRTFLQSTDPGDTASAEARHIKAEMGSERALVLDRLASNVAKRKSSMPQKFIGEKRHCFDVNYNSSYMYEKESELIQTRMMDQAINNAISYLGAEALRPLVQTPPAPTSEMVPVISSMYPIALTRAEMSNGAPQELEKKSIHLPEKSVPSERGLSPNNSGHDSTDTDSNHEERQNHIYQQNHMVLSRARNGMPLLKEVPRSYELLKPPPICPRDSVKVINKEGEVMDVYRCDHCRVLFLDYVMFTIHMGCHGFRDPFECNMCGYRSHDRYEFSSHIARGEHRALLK

| Variant | effect of a mutation on the interaction |
| --- | --- |
| W94R | disrupting interaction strength |

Variants of: B5
Conditions: with pak5_human PAK5, Q9P286
Chain of pak5_human PAK5, Q9P286 (Q9P286 whole entry, looked up): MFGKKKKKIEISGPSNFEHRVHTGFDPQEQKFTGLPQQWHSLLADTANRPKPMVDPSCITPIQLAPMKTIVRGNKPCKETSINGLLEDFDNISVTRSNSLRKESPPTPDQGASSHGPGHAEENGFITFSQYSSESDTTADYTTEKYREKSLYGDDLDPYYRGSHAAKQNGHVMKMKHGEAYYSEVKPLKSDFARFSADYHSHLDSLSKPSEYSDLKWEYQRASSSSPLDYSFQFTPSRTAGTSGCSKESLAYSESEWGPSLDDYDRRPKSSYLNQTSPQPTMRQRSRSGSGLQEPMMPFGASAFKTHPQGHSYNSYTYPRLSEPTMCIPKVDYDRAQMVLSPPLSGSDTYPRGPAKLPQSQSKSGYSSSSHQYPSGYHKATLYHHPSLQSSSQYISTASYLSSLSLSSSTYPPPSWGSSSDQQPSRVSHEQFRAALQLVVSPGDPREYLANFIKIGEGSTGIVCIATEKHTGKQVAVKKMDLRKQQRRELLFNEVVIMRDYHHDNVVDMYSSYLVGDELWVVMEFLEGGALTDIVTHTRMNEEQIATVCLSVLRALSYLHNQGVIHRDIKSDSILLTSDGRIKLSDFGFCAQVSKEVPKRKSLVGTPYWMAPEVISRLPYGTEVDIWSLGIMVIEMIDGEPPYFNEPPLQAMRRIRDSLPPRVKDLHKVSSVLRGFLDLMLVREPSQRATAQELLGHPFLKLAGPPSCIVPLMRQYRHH

| Variant | effect of a mutation on the interaction |
| --- | --- |
| W94R | disrupting interaction strength |

Variants of: B5
Conditions: with maga6_human MAGEA6, P43360
Chain of maga6_human MAGEA6, P43360 (P43360 whole entry): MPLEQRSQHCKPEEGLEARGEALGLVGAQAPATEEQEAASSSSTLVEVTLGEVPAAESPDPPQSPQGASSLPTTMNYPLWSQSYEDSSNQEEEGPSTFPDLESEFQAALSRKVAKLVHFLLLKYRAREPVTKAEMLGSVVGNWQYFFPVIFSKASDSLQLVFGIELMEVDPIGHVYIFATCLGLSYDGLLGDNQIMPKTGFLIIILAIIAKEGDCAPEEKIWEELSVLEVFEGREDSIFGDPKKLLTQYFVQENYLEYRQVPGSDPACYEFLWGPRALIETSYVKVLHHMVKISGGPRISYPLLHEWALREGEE

| Variant | effect of a mutation on the interaction |
| --- | --- |
| W94R | disrupting interaction strength |

Variants of: B5
Conditions: with lzts2_human LZTS2, Q9BRK4
Chain of lzts2_human LZTS2, Q9BRK4 (Q9BRK4 whole entry): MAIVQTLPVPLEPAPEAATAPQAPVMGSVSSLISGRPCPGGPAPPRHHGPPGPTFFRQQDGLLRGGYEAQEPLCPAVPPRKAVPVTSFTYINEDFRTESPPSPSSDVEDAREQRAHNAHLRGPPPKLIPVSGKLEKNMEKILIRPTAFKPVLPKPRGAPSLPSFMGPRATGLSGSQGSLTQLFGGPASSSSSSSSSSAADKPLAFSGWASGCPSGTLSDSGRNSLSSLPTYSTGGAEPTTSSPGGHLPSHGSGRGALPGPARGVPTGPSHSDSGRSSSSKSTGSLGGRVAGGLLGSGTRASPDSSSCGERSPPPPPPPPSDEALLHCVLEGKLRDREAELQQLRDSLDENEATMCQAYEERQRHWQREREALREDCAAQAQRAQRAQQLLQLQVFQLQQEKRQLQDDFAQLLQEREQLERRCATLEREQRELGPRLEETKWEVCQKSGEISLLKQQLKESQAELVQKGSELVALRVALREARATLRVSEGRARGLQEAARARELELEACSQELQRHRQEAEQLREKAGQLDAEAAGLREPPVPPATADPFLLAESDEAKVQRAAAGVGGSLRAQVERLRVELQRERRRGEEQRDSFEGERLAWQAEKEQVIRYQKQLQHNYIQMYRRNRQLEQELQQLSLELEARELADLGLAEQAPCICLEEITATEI

| Variant | effect of a mutation on the interaction |
| --- | --- |
| W94R | disrupting interaction strength |

Variants of: B5
Conditions: with KRT40, Q6A162
Chain of KRT40, Q6A162 (Q6A162 whole entry): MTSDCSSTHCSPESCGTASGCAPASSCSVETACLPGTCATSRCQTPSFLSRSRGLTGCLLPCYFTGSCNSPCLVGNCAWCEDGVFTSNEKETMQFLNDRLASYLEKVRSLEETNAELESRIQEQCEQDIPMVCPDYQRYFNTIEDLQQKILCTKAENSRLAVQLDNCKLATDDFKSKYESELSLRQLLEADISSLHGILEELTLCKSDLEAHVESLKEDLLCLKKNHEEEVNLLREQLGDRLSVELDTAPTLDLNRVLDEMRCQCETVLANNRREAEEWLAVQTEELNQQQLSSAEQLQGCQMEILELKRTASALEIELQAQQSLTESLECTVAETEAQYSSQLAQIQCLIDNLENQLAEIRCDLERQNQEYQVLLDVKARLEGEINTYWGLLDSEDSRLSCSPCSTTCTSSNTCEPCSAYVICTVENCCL

| Variant | effect of a mutation on the interaction |
| --- | --- |
| W94R | disrupting interaction strength |

Variants of: B5
Conditions: with rpia_human RPIA

| Variant | effect of a mutation on the interaction |
| --- | --- |
| W94R | disrupting interaction strength |

Variants of: B5
Conditions: with ews_human EWSR1, Q01844
Chain of ews_human EWSR1, Q01844 (Q01844 whole entry): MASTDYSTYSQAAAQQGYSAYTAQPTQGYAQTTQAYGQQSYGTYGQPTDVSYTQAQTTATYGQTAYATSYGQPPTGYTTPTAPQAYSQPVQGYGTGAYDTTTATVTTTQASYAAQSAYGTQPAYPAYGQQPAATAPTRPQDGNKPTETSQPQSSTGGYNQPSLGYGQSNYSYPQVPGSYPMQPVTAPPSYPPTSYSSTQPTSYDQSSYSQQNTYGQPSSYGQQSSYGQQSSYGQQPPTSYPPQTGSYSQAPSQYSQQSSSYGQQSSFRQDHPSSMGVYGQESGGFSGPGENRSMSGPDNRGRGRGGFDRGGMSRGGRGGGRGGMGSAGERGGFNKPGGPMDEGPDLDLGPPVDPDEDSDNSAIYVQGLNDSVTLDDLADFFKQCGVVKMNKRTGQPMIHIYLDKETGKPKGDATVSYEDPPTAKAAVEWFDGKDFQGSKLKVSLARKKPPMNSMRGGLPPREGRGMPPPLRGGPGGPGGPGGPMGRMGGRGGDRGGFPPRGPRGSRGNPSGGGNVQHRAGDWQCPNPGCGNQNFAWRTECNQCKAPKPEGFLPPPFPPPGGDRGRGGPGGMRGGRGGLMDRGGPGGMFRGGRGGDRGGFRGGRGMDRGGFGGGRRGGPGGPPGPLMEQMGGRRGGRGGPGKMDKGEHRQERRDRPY

| Variant | effect of a mutation on the interaction |
| --- | --- |
| W94R | disrupting interaction strength |

Variants of: B6
Conditions: with krt38_human KRT38, O76015

| Variant | effect of a mutation on the interaction |
| --- | --- |
| N171K | with no effect |

Variants of: B6
Conditions: with krt38_human KRT38, O76015
Remark: another data set of the same source

| Variant | effect of a mutation on the interaction |
| --- | --- |
| N21S | with no effect |

Reference: IntAct's records for PubMed 25910212
